Test results published in the nanobody polyreactivity screen of Harvey et al. (2022).

Assay: yeast display, Sf9 membrane polyspecificity reagent, FACS + sequencing; frameworks hold sequencing errors
Summary of the method: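 Using colony PCR, genes from sorted yeast display clones were amplified, then sequenced on MiSeq at 2 × 250 and filtered by CDR length. The clones had been stained with 10% biotinylated, detergent-solubilized Sf9 membrane reagent for 1 hour at 4 °C and sorted by FACS into low and high (top ~1%) gates on anti-HA and streptavidin fluorescence. Polyreactivity labels come from the gate of origin.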

| Sequence | polyreactivity (PSR sort gate) |
| --- | --- |
| QVQLVESGGGLVQAGGSLRLSCAASGRTFKYYTMGWYRQAPGKERELVAAISGGGGITNYADSVKGRFTISRDNAKNTVYLQMNSQKPEDTAVYYCYARYNSWRYLAQYNYWGQGTQVTVSS | high polyreactivity |
| QVQLVESGGGLVQAGGSLRLSCAASGRTFLGYAMGWYRQAPGKERELVAAINRSGGRTYYADSVKGRFTISRDNAKNTVYLQMNSMKQEDTSVYYCAAYTSYSAYDYWGQGTQVTVSS | high polyreactivity |
| QVQLVESGGGLVQAGGSLRLSCAASGRTFLGYAMGWYRQAPGKERELVAAISYSGSSTYYADSVKGRFTITRDNAKITVYLQMNSLKPEDTAVYYCAAQFFFLFDYWGQGTQVTLSS | low polyreactivity |
| QVQLVESGGGLVQAGGSLRLSCAASGRTFLINAMGWYRQAPGKERELVAAITQSGGSTYYADSVKGRFTISRDNAKNTVYLQMNSLKPEDTAVYYCNAQSWYIVPYDYWGQGTQVTVSS | low polyreactivity |
| QVQLVESGGGLVQAGGSLRLSCAASGRTFLLNAMGWYRQAPGKERELVAAMTRSGVITYYADSVKGRFTISRDNAKNTVYLQMNSLKPEDTAVYYCAARRDARSTEYGYWGQGTQVTVSS | high polyreactivity |
| QVQLVESGGGLVQAGGSLRLSCAASGRTFLLNAMGWYRQAPGKERELVATITYSGGITYYADSVKGRFTISRDNAKNTVYLQMNSLKPEDTAVYYCSTSGPQYYSRNFDYWGQGTQVTVSS | low polyreactivity |
| QVQLVESGGGLVQAGGSLRLSCAASGRTFLLYAMGWYRPAPGKERELVAAIRSSTVSTYYADSVKGRFTISRDNAKNTVYLQMNSLKPEDTAVYYCAASRPKYGPSGVRYNYWGQGTQVTVSS | high polyreactivity |
| QVQLVESGGGLVQAGGSLRLSCAASGRTFLNYPMGWYRPAPGKERELVASISSSGARTYYADSVKGRFTISRDNAKNTVYLQMNSLKPEDTAVYFCAVTAGRGGYPQGGVTRGYWGQGTQVTVSS | high polyreactivity |
| QVQLVESGGGLVQAGGSLRLSCAASGRTFLPNAMGWYRQAPGKERELVAAINWRGASTYYADSVKGRFTISRDNAKNTVYLQMNSLKPEDTAVYYCAVDSHYQSYYYRRYDYWGQGTQVTVSS | low polyreactivity |
| QVQLVESGGGLVQAGGSLRLSCAASGRTFLPNPMGWYRQAPGKERELVAVITSGGSTNYADSVKGRFTISRDNAKNTVYLQMNSLKPEDTAVYYCAADRYSYFYIGYDYWGQGTQVTVSS | low polyreactivity |
| QVQLVESGGGLVQAGGSLRLSCAASGRTFLPYAMGWYRQAPGKERELVADINWGGGSTYYADSVKGRFTISRDNATNTVYLQMNSLKQEDTALYYCATDDGYQYWYYQWYYWGQGTQVTVSS | low polyreactivity |
| QVQLVESGGGLVQAGGSLRLSCAASGRTFLRNAMRWYRQAPGKERELVATISIGGRTYYADSVKGRFTISRDNAKNTVYLQMNSLKPEDTAVYYCNASTSILSLDWEYGSWGQGTQVTVSS | low polyreactivity |
| QVQLVESGGGLVQAGGSLRLSCAASGRTFLRYAMGWYRQAPGKERELVAAISVSGGNTYYADSVKGRFTISRDNAKNTVYLQMNSLKPEDTAVYYCNKARLAAVFSYPYGYWGQVTQVTVSS | low polyreactivity |
| QVQLVESGGGLVQAGGSLRLSCAASGRTFLRYAMGWYRQAPGTERELVAAISWSGGRTYYADSVKGRFTISRDNAKNTVYLQMNSLKPEDTAVYYCNKVVLYGAHYYYWGQGTQVTVSS | high polyreactivity |
| QVQLVESGGGLVQAGGSLRLSCAASGRTFLSYMGWYRQAPGKERELVAISRSGTSTYYADSVKGRFTISRDNAKNTVYLQMNSLKPEDTAVYYCAAETNTWYLFDYWGQGTQVTVSS | high polyreactivity |
| QVQLVESGGGLVQAGGSLRLSCAASGRTFLTNAMGWYRQAPGKERELVAAIRWSGTSTYYADSVKGRFTISRDNAKNTVYLQMNSLKPEDTAVYYCAARKVYGSKYGYWGQGTQVTVSS | high polyreactivity |
| QVQLVESGGGLVQAGGSLRLSCAASGRTFLTNAMGWYRQAPGKERELVAAISSGASTNYADSVKGRFTISRDNAKNTVYLQMNSLKPEDTAVYYCAAQLTDYQSKTLSYDYWGQGTQVTVSS | low polyreactivity |
| QVQLVESGGGLVQAGGSLRLSCAASGRTFLTYAMGWYRQAPGKERELVAAISKRGGSTYYADSVKGRFTISRDNAKNTVYLQMNSLKPEDTAVYFCAADNGNHYGFWGQGTQVTVSS | high polyreactivity |
| QVQLVESGGGLVQAGGSLRLSCAASGRTFLVYAMGWYRQAPGKERELVAAITWTGGTTYYADSVKGRFTISRDNAKNTVYLQMNSLKPEDTAVYYCNKRGSAWLVEEVDYWGQGTQVTVSS | low polyreactivity |
| QVQLVESGGGLVQAGGSLRLSCAASGRTFLVYAMGWYRQPPGTERELVAAITSGGSTYYADSVKGRFTISRDNAKNTVYLQMNSLKPEDTAVYYCAAKIRGYPRRRYDYWGQGTQVTVSS | high polyreactivity |
| QVQLVESGGGLVQAGGSLRLSCAASGRTFLYNAMGWYRQAPGKERELVAAISGRGGRTYYADSVKGRFTISRDNAKNTVYLQMNSLKPEDTAVYYCAASQYYRWVIGYDFEYDYWGQGTQVTVSS | high polyreactivity |
| QVQLVESGGGLVQAGGSLRLSCAASGRTFLYNTRGWYRQAPGKERELVATITGSGASTYYADSVKGRFTISRDNAKNTVYLQMNSLKPEDTAVYYCATDNVYAYDYWGQGTQLTVSS | high polyreactivity |

| Sequence | polyreactivity (PSR sort gate) |
| --- | --- |
| QVQLVESGGGLVQAGGSLRLSCAASGRTFLYSTMGWYRQAPGKERELVAAISKSVGRTYYADSVKGRFTISRDNAKNTVYLQMNSLKPEDTAVYYCAKRWYAGAQHGFDYLGQGTQVTVSS | low polyreactivity |
| QVQLVESGGGLVQAGGSLRLSCAASGRTFLYYAMGWESQGPGKERELVAAITGRGGSTYSADSVKGRFTISRDNAKNTVYLQMNILKPEDTAVYYCAARDNWIRRDGYWGQGTQVTVSS | high polyreactivity |
| QVQLVESGGGLVQAGGSLRLSCAASGRTFLYYTMGWYRQAPGKERELVAAINWSGGRTYYADSVKGRFTISRDNAKNTVYLQMNSLKPEDTAVYYCNADSRYRYDYWGQGTQVTVSS | low polyreactivity |
| QVQLVESGGGLVQAGGSLRLSCAASGRTFNGYALGGYRQAPGKERELVAAICSSGGSTYYADSVKGRFTISRDNAKNTVYLQMNSLKPEDTAVYYCAARRANGFNYWGQGTQVTVSS | high polyreactivity |
| QVQLVESGGGLVQAGGSLRLSCAASGRTFNGYAMGWYRQAPGKERELVAAISSSGSTNYADSVKGRFTISRDNAKNTVYLQMNSLKPEDTAVYYCAAEYYAYESVEYDYWGQGTQVTVSS | low polyreactivity |
| QVQLVESGGGLVQAGGSLRLSCAASGRTFNHYAMGWYSQAPGKVRELVAGITISGGSTYYADSVKGRFTISRDNAKNTVYLQMNSLKPEDTPVYYCKAVYEYYRQSKGNMDYWGQGTQGTVSS | low polyreactivity |
| QVQLVESGGGLVQAGGSLRLSCAASGRTFNLYAMVWSRQAPGKERELVAAISLSGGRTYYADSVKGRITISRDNAKNTVFLQMNRLNPEDTAVYYCNTDTSRRAVQYDYWGQGTQVSVSS | high polyreactivity |
| QVQLVESGGGLVQAGGSLRLSCAASGRTFNPYAMGWYRQAPGKERELVAVISYIGGSTYADSVKGRFTISRDNEKNTVYLQMNSLKPEDTAVYYCNRATFGQWGCDYWGQGTQVTVSS | high polyreactivity |
| QVQLVESGGGLVQAGGSLRLSCAASGRTFNPYSLGWYRQAPGIVRELVAAISYRGGSTYNADSVKGRFTISRDNAKNTVYLQLNSLKPEDTAVYYCAKRGYASGSKWDYGYWGQGTQVTVSS | high polyreactivity |
| QVQLVESGGGLVQAGGSLRLSCAASGRTFNRYGMGWYRQAPGKERELVASITSGGSTNYADSVKGRFTISRDNAKNTVYLQMNSLKPEDTAVYYCAKRSIGRYPRTYDYWGQGTQVTVSS | low polyreactivity |
| QVQLVESGGGLVQAGGSLRLSCAASGRTFNSNAMGWYRQAPGKERELVAAISGSGGSTYYADSVKGRFTISRDNAKNTVYLQMNSLKPEDTAVYYCAAAARQWKKYDYWGQGTQVTVSS | high polyreactivity |
| QVQLVESGGGLVQAGGSLRLSCAASGRTFNSYAMGWYRQAPGKEWELVASISSGGSTYYADSVKGRFTLSRDNAKNTDYLQMNSLKPEDTAVYYCAAKSVAYYSYFRRDYWGQGTQVTVSS | low polyreactivity |
| QVQLVESGGGLVQAGGSLRLSCAASGRTFNTYAMGWYSQAPGKERELVAAISRRGGSTYYADSVKGRFTISRDNAKNTDYLQMNSLKPEDTAVYYCAAGNSVGLGWGQGTQVTVSS | high polyreactivity |
| QVQLVESGGGLVQAGGSLRLSCAASGRTFNWNALGWYRQAPGKERELVATISRRGGSTYYADSVKGRFTISRDNAKNTVYLQMNSLKREDTAVYYCITAGRYGYDYWGQGTQVTVSS | high polyreactivity |
| QVQLVESGGGLVQAGGSLRLSCAASGRTFNWYAMGWYRQAPGKERELVAAIRVNGGITYYADSVKGRFTISRDNAMNTVYLQMNSLKPEDTAVYYCAVYSRQGLGYWGQGTQVTVSS | high polyreactivity |
| QVQLVESGGGLVQAGGSLRLSCAASGRTFNYYAMGSYRQAPGKERELVAAISWSGTPTYYADSVKGRFTISRDNAKNTVYLQMNSLKPEDTAVYYCAAHSGSTYKYWGQGTQVTVSS | low polyreactivity |
| QVQLVESGGGLVQAGGSLRLSCAASGRTFNYYAMGWYRQAPGKERELVAAISASGGRTYYADSVKGRFTISRDNAKNTVYLQMNSLKPAETAVYYCAKVSSFDAQFDYWGQGTQVTVSS | high polyreactivity |
| QVQLVESGGGLVQAGGSLRLSCAASGRTFNYYAMGWYRQAPGKERELVAAISRSGGSTYYADSVKGRFTISRDNAKNTVYLQMNSLKPEDTAVYYCAVAWNVRGVGARQRYIYGYWGQGTQVTVSS | high polyreactivity |
| QVQLVESGGGLVQAGGSLRLSCAASGRTFNYYAMGWYRQAPGKERELVAAISWSGTPTYYADSVKGRFTISRDNAKNTVYLQMNSLKPEDTAVYYCAAGYNYTSYADLDYWGQGTQVTVSS | low polyreactivity |
| QVQLVESGGGLVQAGGSLRLSCAASGRTFNYYAMGWYRQAPGKERELVAAITSGSTTYYADSVKGRFTISRDNAKNTVYLQMNSLKPEDTAVYYCATAWRPADNSWGQGTQVTVSS | low polyreactivity |
| QVQLVESGGGLVQAGGSLRLSCAASGRTFNYYARGWYRQAPGKERELVAAISKRGGSTYYADSVKGRFTISRDNAKNTVYLQMNSLKPEDTAVYYCNAAQSVELGYDYWGKGTQVTVSS | high polyreactivity |
